Results as given in publication PMC2828957 (Molecular Biology of the Cell, 2010).
Blank lines part the entries; values can stand above or below the binder they belong to.

B1: human Sec62N (N-terminal domain of human Sec62, residues 1-195, C-terminal hexa-histidine tag) (domain or fragment, UniProt Q99442 1-195, looked up)
chain: MAERRRHKKRIQEVGEPSKEEKAVAKYLRFNCPTKSTNMMGHRVDYFIASKAVDCLLDSKWAKAKKGEEALFTTRESVVDYCNRLLKKQFFHRALKVMKMKYDKDIKKEKDKGKAESGKEEDKKSKKENIKDEKTKKEKEKKKDGEKEESKKEETPGTPKKKETKKKFKLEPHDDQVFLDGNEVYVWIYDPVHFK
B2: Sec62N-ΔN10-ΔC40 (human Sec62 residues 11-155, C-terminal hexa-histidine tag) (domain or fragment, UniProt Q99442 11-155, looked up)
chain: IQEVGEPSKEEKAVAKYLRFNCPTKSTNMMGHRVDYFIASKAVDCLLDSKWAKAKKGEEALFTTRESVVDYCNRLLKKQFFHRALKVMKMKYDKDIKKEKDKGKAESGKEEDKKSKKENIKDEKTKKEKEKKKDGEKEESKKEET

Tests used:
[1] = biological target: T1, GST-Sec63C (complete C-terminal domain of human Sec63, residues 210-760, N-terminal GST) (human, UniProt Q9UGP8 210-760); assay: SPR
T1 sequence (looked up): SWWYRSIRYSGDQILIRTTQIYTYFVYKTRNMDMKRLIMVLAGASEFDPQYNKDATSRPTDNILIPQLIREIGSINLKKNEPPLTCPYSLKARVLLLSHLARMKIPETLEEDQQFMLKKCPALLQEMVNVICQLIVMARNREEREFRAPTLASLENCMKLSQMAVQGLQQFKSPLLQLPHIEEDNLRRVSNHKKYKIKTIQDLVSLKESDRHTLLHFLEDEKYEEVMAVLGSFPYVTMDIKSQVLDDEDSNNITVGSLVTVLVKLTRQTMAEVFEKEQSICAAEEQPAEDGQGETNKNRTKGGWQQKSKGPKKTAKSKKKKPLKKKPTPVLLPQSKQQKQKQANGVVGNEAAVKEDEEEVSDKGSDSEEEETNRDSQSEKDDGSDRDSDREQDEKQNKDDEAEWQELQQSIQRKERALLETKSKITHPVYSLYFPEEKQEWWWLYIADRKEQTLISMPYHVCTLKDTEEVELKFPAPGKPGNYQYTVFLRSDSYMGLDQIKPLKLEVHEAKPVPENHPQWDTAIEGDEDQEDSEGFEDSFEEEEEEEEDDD

[2] = biological target: T1, GST-Sec63C (complete C-terminal domain …); assay: pull-down
[3] = biological target: B1; assay: pull-down
[4] = biological target: B2; assay: pull-down

Binder: B1
Kd [1]: 4.78 nM

Binder: B2
binding result [2]: binds

binding result [3]: binds
binding result [4]: binds
Binder: EGDEDQEDSEGFEDSFEEEEEEEEDDD (domain or fragment, UniProt Q9UGP8 734-760, looked up) [GST-Sec63C26 (C-terminal 26 amino acid residues of human Sec63, residues 734-760, N-terminal GST)]
